According to PMC9149338 (Cellular and Molecular Immunology, 2022):

Target: GST-importin α5 (aa 400–538) (human, UniProt P52294 400-538)
Experiment: SPR

Chain of GST-importin α5 (aa 400–538) (P52294 400-538): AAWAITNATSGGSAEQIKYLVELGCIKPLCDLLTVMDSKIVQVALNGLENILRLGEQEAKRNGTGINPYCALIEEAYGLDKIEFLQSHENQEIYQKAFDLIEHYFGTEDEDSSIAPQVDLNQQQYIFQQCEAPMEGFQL

Binder	Kd [nM]	binding result
KEREKKREKEEKKRLELEKKEQKEKEKKEQEIKKK [ADAP NLS1 peptide]	2.67	–
KAKTEEKDLKKLKKQEKEEKDFRKKFK [ADAP NLS2 peptide]	2.38	–
HLQLKEQKNA [STAT1 NLS peptide]	–	binds
